According to the supplement of paper PMC7877785:
± gives the uncertainty stated by the source.

Test: self-splicing fitness, log relative to wild type (ln ratio); higher = more splicing; Tetrahymena group I intron in knt gene, E. coli kanamycin selection, DiMSum; sequences stand for … in CUCUCU…GGAGGGAAAAGUUAUCAGGCAUGCACCUGGUAGCUAGUCUUUAAACCAAUAGAUUGCAUCGGUUUAAAAGGCAAGACCGUCAAAUUGCGGGAAAGGGGUCAACAGCCGUUCAGUACCAAGUCUCAGGGGAAACUUUGAGAUGGCCUUGCAAAGGGUAUGGUAAUAAGCUGACGGACAUGGUCCUAACCACGCAGCCAAGUCCUAAGUCAACAGAUCUUCUGUUGAUAUGGAUGCAGUUCACAGACUAAAUGUCGGUCGGGGAAGAUGUAUUCUUCUCAUAAGAUAUAGUCGGACCUCUCCUUAAUGGGAGCUAGCGGAUGAAGUGAUGCAACACUGGAGCCGCUGGGAACUAAUUUGUAUGCGAAAGUAUAUUGAUUAGUUUUGGAGUACUCGUGGUCG
Method in brief: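 A randomised library covering all eight P1ex-region intron nucleotides was built with the intron in the knt kanamycin-resistance gene on pET-22b(+) and held in E. coli BL21(DE3). Cells were grown overnight at 37°C or 30°C on LB agar, with or without 25 μg/mL kanamycin, plus 100 μg/mL carbenicillin, 50 μM IPTG and 0.2% rhamnose, and pooled colonies were amplicon-sequenced on an Illumina HiSeq 2500. DiMSum fitness is the error-weighted combination of wild-type-normalised replicate fold changes, kanamycin versus none.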

Sequence	self-splicing fitness (ln) (30 °C)	self-splicing fitness (ln) (37 °C)
GUGAAGCAAUAUUACGGAAC	0.76 ± 0.34	–
AUCUAGCAAUAUUACGCGGU	-2.85 ± 0.18	-2.73 ± 0.26
CCUUAGCAAUAUUACGUGAA	-4.2 ± 0.24	-3.37 ± 0.28
AUAGAGCAAUAUUACGACAC	-0.57 ± 0.15	-0.0339 ± 0.2
CCGCAGCAAUAUUACGAACU	-1.92 ± 0.17	–
AUGAAGCAAUAUUACGUACA	-0.369 ± 0.083	-0.631 ± 0.089
GGGAAGCAAUAUUACGGGGC	-2.85 ± 0.34	–
CAGCAGCAAUAUUACGUUAG	-1.17 ± 0.063	-0.421 ± 0.078
AGUUAGCAAUAUUACGGACG	-0.568 ± 0.16	0.616 ± 0.18
ACAUAGCAAUAUUACGUUGG	-3.23 ± 0.2	-2.29 ± 0.14
GCAUAGCAAUAUUACGCAUG	-3.79 ± 0.23	-2.12 ± 0.19
UAAGAGCAAUAUUACGGACG	-1.89 ± 0.2	-1.67 ± 0.26
UAAUAGCAAUAUUACGCGAG	-1.62 ± 0.14	-1.46 ± 0.13
UCCAAGCAAUAUUACGCGAC	-2.44 ± 0.23	–
CGAUAGCAAUAUUACGCUGG	-0.585 ± 0.19	-1.43 ± 0.23
GGUCAGCAAUAUUACGGGUG	-1.3 ± 0.067	-0.637 ± 0.072
AUCCAGCAAUAUUACGGAAC	-2.68 ± 0.18	-1.06 ± 0.15
ACAGAGCAAUAUUACGCGUC	–	-2.07 ± 0.29
CUGAAGCAAUAUUACGGCAG	-0.522 ± 0.11	-0.657 ± 0.14
GCUAAGCAAUAUUACGUUCC	-1.14 ± 0.087	-0.467 ± 0.14
AGGCAGCAAUAUUACGUCAU	-1.87 ± 0.058	-1.1 ± 0.077
UAACAGCAAUAUUACGCCCA	-0.674 ± 0.12	0.423 ± 0.15
GCCGAGCAAUAUUACGUCGC	-4.48 ± 0.47	-1.88 ± 0.25
AAAUAGCAAUAUUACGUCCU	-0.0903 ± 0.081	0.319 ± 0.1
ACUUAGCAAUAUUACGAGAU	-2.61 ± 0.2	-2.95 ± 0.24

Sequence	self-splicing fitness (ln) (30 °C)	self-splicing fitness (ln) (37 °C)
GGCGAGCAAUAUUACGCGUG	-1.15 ± 0.19	-0.666 ± 0.2
GGCAAGCAAUAUUACGCAUA	-0.239 ± 0.12	0.0644 ± 0.13
UGUAAGCAAUAUUACGAGCA	-0.193 ± 0.14	0.404 ± 0.2
AUGAAGCAAUAUUACGGUUU	-1.99 ± 0.088	-0.875 ± 0.091
CAAGAGCAAUAUUACGGUUU	-3.5 ± 0.18	-2.33 ± 0.2
GUGUAGCAAUAUUACGGUUA	-0.588 ± 0.14	-0.936 ± 0.17
UCAUAGCAAUAUUACGGGAC	-2.96 ± 0.27	-3.97 ± 0.39
GCAUAGCAAUAUUACGGCGC	-0.822 ± 0.17	-0.485 ± 0.2
CACGAGCAAUAUUACGGCUA	-2.19 ± 0.22	-1.41 ± 0.17
GGAUAGCAAUAUUACGCUUC	-3.86 ± 0.35	–
UUCUAGCAAUAUUACGGCUC	-1.38 ± 0.14	-0.913 ± 0.2
AGCUAGCAAUAUUACGACGG	-1.66 ± 0.23	-1.43 ± 0.42
UUCUAGCAAUAUUACGAGUU	-2.55 ± 0.15	-1.92 ± 0.13
GUGAAGCAAUAUUACGGCCU	0.395 ± 0.068	0.277 ± 0.085
GCCUAGCAAUAUUACGGACA	-1.03 ± 0.097	-0.277 ± 0.11
CGUAAGCAAUAUUACGGUGC	-2.65 ± 0.15	-3.7 ± 0.31
AGUCAGCAAUAUUACGGAAC	-2.87 ± 0.15	-1.89 ± 0.15
CUUAAGCAAUAUUACGUGUG	-1.18 ± 0.061	-0.604 ± 0.074
UUAUAGCAAUAUUACGUCGA	-0.277 ± 0.13	-0.308 ± 0.15
CAUCAGCAAUAUUACGCUUC	-2.2 ± 0.18	-0.251 ± 0.12
CUUGAGCAAUAUUACGGUCU	-3.17 ± 0.29	-3.61 ± 0.37
CUACAGCAAUAUUACGCGCC	-3.98 ± 0.35	-2.3 ± 0.41
AGAAAGCAAUAUUACGAGGG	-2.8 ± 0.21	-2.61 ± 0.36
AUGGAGCAAUAUUACGUCAU	–	-1.33 ± 0.27
GACCAGCAAUAUUACGAAGG	-3.3 ± 0.13	-2.19 ± 0.18
